Substrate in data set [1]: N[C@@H](Cc1ccc(O)c(O)c1)C(=O)O
The experiment in a line: purified protein. As to conditions: diphenolase. In kind it is biochemical, Candidatus Nitrosopumilus koreensis.

Substrate in data set [2]: N[C@@H](Cc1ccc(O)cc1)C(=O)O
Briefly: purified protein. In kind it is biochemical, Candidatus Nitrosopumilus koreensis. The conditions noted are these: monophenolase.

[3] abbreviates: 50 mM Tris pH 6.0, 0.01 mM CuSO4, 20 °C, substrate range 0.025–0.0625 mM.

B1: cTyr-CNK (Candidatus Nitrosopumilus koreensis AR1) (protein)
chain: MTRKNAKDFLPDERQRYCNALLTLKQTIEPGHTLSKYDEFVAIHYGVTRRLRNGIPIGDGAHFVPGFLAWHREYLNRFEKAIRTVDSTLSLPYWNWSSGDDTDTTEIFTDDFMGPPGDPNNGNKITSGYFVENNWEVHSELDGGNNGSVLVRDSTLLSSSKLSQVSGYGELAMDAVNGDNDFDSFLPGLEGPHGSIHMWIGGHMTSMTSPNDPIFFLHHANIDRLWSKWQELHPGPENYNPNNDGSYGSRLNDRMWPWDGSEDTTTTRTGTATGISLQGLLPTFSDYDIVTPR
notes: core tyrosinase domain, residues 1-293, C-terminal 294-415 removed; His6 tag (pET23b+), E. coli BL21(DE3), Ni-NTA purified
Consider B1, for which the Michaelis-Menten constant (Km) amounted to 560 ± 40 µM in “purified protein [1]” (pH 6, 20 °C) and 1600 ± 650 µM in the data set “purified protein [2]” (pH 6, 20 °C). Moreover, the turnover number (kcat) in the data set “purified protein [1]” (pH 6, 20 °C) is 2.05 ± 0.10 s⁻¹; in the data set “purified protein [2]” (pH 6, 20 °C), 2.13 ± 0.79 s⁻¹.

B2: mTyr-CNK (Candidatus Nitrosopumilus koreensis AR1) (protein)
chain: MTRKNAKDFLPDERQRYCNALLTLKQTIEPGHTLSKYDEFVAIHYGVTRRLRNGIPIGDGAHFVPGFLAWHREYLNRFEKAIRTVDSTLSLPYWNWSSGDDTDTTEIFTDDFMGPPGDPNNGNKITSGYFVENNWEVHSELDGGNNGSVLVRDSTLLSSSKLSQVSGYGELAMDAVNGDNDFDSFLPGLEGPHGSIHMWIGGHMTSMTSPNDPIFFLHHANIDRLWSKWQELHPGPENYNPNNDGSYGSRLNDRMWPWDGSEDTTTTRTGTATGISLQGLLPTFSDYDIVTPRHVLDNNLTIP
notes: mature form, residues 1-303, C-terminal extension 304-415 removed; His6 tag (pET23b+), codon-optimized gene, E. coli BL21(DE3), Ni-NTA purified
As for B2, in the data set “purified protein [1]” (setting [3]), the Km is 490 ± 40 µM, the kcat amounted to 0.87 ± 0.07 s⁻¹ and the catalytic efficiency (kcat/Km) turned out to be 1810 ± 260 M⁻¹ s⁻¹. In the data set “purified protein [2]” (setting [3]), the Km came out at 2120 ± 140 µM, the turnover number (kcat) is 3.33 ± 0.18 s⁻¹ and the kcat/Km amounted to 1570 ± 10 M⁻¹ s⁻¹.

The record behind these values is paper PMC5722948, “A tyrosinase, mTyr-CNK, that is functionally available as a monophenol monooxygenase” (Scientific Reports, 2017).
